In paper PMC10786891, “Massively parallel profiling of RNA-targeting CRISPR-Cas13d”:
Changes are numbered by the printed parent chain. Names may count otherwise.

T1: EsCas13d, nuclease-dead (Eubacterium siraeum, UniProt B0MS50, R295A;H300A;R849A;H854A)
T1 sequence: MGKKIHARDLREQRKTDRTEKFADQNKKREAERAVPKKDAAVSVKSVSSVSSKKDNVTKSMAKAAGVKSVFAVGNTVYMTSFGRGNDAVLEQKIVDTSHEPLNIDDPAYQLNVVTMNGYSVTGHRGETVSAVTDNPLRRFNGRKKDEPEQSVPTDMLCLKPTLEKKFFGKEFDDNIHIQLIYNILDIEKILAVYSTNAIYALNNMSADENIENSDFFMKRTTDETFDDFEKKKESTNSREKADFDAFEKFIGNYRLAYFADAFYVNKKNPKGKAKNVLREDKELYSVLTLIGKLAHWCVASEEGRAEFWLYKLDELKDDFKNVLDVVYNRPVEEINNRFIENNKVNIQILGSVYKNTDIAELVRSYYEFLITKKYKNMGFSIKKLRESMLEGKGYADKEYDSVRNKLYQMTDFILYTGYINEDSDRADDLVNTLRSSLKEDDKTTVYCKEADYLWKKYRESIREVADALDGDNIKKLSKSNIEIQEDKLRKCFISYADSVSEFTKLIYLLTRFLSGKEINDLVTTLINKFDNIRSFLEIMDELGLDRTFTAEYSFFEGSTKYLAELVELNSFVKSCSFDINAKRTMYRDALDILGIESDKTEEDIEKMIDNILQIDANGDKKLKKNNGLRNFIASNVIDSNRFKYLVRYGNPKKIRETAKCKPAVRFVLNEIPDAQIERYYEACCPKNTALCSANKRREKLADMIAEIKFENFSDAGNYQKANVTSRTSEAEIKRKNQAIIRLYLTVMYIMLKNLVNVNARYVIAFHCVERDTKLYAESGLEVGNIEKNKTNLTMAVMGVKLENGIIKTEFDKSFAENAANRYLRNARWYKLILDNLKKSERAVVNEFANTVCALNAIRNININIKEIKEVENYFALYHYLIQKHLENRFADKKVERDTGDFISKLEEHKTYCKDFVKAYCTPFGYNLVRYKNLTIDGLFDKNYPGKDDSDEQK

B1: target 2 MT 5'PFS CUC 3'PFS AUU (mixed)
RNA 1: CACCCGUGCAAAAUUGCAGGGGUCUAAAACCUUCUCCAAAUUGUUUCAUCCU
RNA 2: GGGAAUGGAUCCACAUCUACGAAUUCCUCAGGAUGAAACAAUUUGGAGAAGAUUAGAUCGGAAGAGCACACGU
B2: target 2 MT 5'PFS GAU 3'PFS AAU (mixed)
RNA 1: B1 RNA 1
RNA 2: B1 RNA 2 with C27G, U28A, C29U, U53A
B3: target 2 MT 5'PFS GUC 3'PFS AGA (mixed)
RNA 1: B1 RNA 1
RNA 2: B1 RNA 2 with C27G, U53G, U54A
B4: target 2 MT 5'PFS CCU 3'PFS UAG (mixed)
RNA 1: B1 RNA 1
RNA 2: B1 RNA 2 with U28C, C29U, A52U, U53A, U54G
B5: target 2 MT 5'PFS GUC 3'PFS AGG (mixed)
RNA 1: B1 RNA 1
RNA 2: B1 RNA 2 with C27G, U53G, U54G
B6: target 2 MT 5'PFS GAC 3'PFS AUG (mixed)
RNA 1: B1 RNA 1
RNA 2: B1 RNA 2 with C27G, U28A, U54G
B7: target 2 MT 5'PFS GAU 3'PFS AAG (mixed)
RNA 1: B1 RNA 1
RNA 2: B1 RNA 2 with C27G, U28A, C29U, U53A, U54G
B8: target 2 MT 5'PFS CGC 3'PFS CCA (mixed)
RNA 1: B1 RNA 1
RNA 2: B1 RNA 2 with U28G, A52C, U53C, U54A
B9: target 2 MT 5'PFS UGG 3'PFS AUC (mixed)
RNA 1: B1 RNA 1
RNA 2: B1 RNA 2 with C27U, U28G, C29G, U54C
B10: target 2 MT 5'PFS CUA 3'PFS CAC (mixed)
RNA 1: B1 RNA 1
RNA 2: B1 RNA 2 with C29A, A52C, U53A, U54C
B11: target 2 MT 5'PFS UGC 3'PFS UCG (mixed)
RNA 1: B1 RNA 1
RNA 2: B1 RNA 2 with C27U, U28G, A52U, U53C, U54G
B12: target 2 MT 5'PFS UGC 3'PFS AAG (mixed)
RNA 1: B1 RNA 1
RNA 2: B1 RNA 2 with C27U, U28G, U53A, U54G
B13: target 2 MT 5'PFS ACC 3'PFS AUA (mixed)
RNA 1: B1 RNA 1
RNA 2: B1 RNA 2 with C27A, U28C, U54A
B14: target 2 MT 5'PFS UAC 3'PFS UAG (mixed)
RNA 1: B1 RNA 1
RNA 2: B1 RNA 2 with C27U, U28A, A52U, U53A, U54G
B15: target 2 MT 5'PFS GUC 3'PFS AGC (mixed)
RNA 1: B1 RNA 1
RNA 2: B1 RNA 2 with C27G, U53G, U54C
B16: target 2 MT 5'PFS UAC 3'PFS UAC (mixed)
RNA 1: B1 RNA 1
RNA 2: B1 RNA 2 with C27U, U28A, A52U, U53A, U54C
B17: target 2 MT 5'PFS UGG 3'PFS AUG (mixed)
RNA 1: B1 RNA 1
RNA 2: B1 RNA 2 with C27U, U28G, C29G, U54G
B18: target 2 MT 5'PFS UGC 3'PFS UCA (mixed)
RNA 1: B1 RNA 1
RNA 2: B1 RNA 2 with C27U, U28G, A52U, U53C, U54A
B19: target 2 MT 5'PFS UGA 3'PFS CUA (mixed)
RNA 1: B1 RNA 1
RNA 2: B1 RNA 2 with C27U, U28G, C29A, A52C, U54A
B20: target 2 MT 5'PFS GAU 3'PFS AAA (mixed)
RNA 1: B1 RNA 1
RNA 2: B1 RNA 2 with C27G, U28A, C29U, U53A, U54A
B21: target 2 MT 5'PFS CGC 3'PFS CCG (mixed)
RNA 1: B1 RNA 1
RNA 2: B1 RNA 2 with U28G, A52C, U53C, U54G
B22: target 2 MT 5'PFS UAA 3'PFS CGC (mixed)
RNA 1: B1 RNA 1
RNA 2: B1 RNA 2 with C27U, U28A, C29A, A52C, U53G, U54C
B23: target 2 MT 5'PFS GAC 3'PFS AUC (mixed)
RNA 1: B1 RNA 1
RNA 2: B1 RNA 2 with C27G, U28A, U54C
B24: target 2 MT 5'PFS ACC 3'PFS AUG (mixed)
RNA 1: B1 RNA 1
RNA 2: B1 RNA 2 with C27A, U28C, U54G
B25: target 2 MT 5'PFS UGC 3'PFS AAC (mixed)
RNA 1: B1 RNA 1
RNA 2: B1 RNA 2 with C27U, U28G, U53A, U54C
B26: target 2 MT 5'PFS UGA 3'PFS CUC (mixed)
RNA 1: B1 RNA 1
RNA 2: B1 RNA 2 with C27U, U28G, C29A, A52C, U54C
B27: target 2 MT 5'PFS UGC 3'PFS AAA (mixed)
RNA 1: B1 RNA 1
RNA 2: B1 RNA 2 with C27U, U28G, U53A, U54A
B28: target 2 MT 5'PFS GAU 3'PFS AAC (mixed)
RNA 1: B1 RNA 1
RNA 2: B1 RNA 2 with C27G, U28A, C29U, U53A, U54C
B29: target 2 MT 5'PFS ACC 3'PFS AUC (mixed)
RNA 1: B1 RNA 1
RNA 2: B1 RNA 2 with C27A, U28C, U54C
B30: target 2 MT 5'PFS UAC 3'PFS AGA (mixed)
RNA 1: B1 RNA 1
RNA 2: B1 RNA 2 with C27U, U28A, U53G, U54A
B31: target 2 MT 5'PFS GAC 3'PFS AUU (mixed)
RNA 1: B1 RNA 1
RNA 2: B1 RNA 2 with C27G, U28A
B32: target 2 MT 5'PFS GAC 3'PFS CGA (mixed)
RNA 1: B1 RNA 1
RNA 2: B1 RNA 2 with C27G, U28A, A52C, U53G, U54A
B33: target 2 MT 5'PFS ACA 3'PFS UCC (mixed)
RNA 1: B1 RNA 1
RNA 2: B1 RNA 2 with C27A, U28C, C29A, A52U, U53C, U54C
B34: target 2 MT 5'PFS ACC 3'PFS AUU (mixed)
RNA 1: B1 RNA 1
RNA 2: B1 RNA 2 with C27A, U28C
B35: target 1 C7U,A18G (mixed)
RNA 1: CACCCGUGCAAAAAUGCAGGGGUCUAAAACUGAGCGGAUAACCUCUCUAUGG
RNA 2: GGGAAUGGAUCCACAUCUACGAAUUCGUACCAUGGAGAGGUUAUUCGCUCACCGAGAUCGGAAGAGCACACGU
B36: target 1 insG 3' of 16,insU 3' of 13 (mixed)
RNA 1: B35 RNA 1
RNA 2: GGGAAUGGAUCCACAUCUACGAAUUCGUACCAUAGAGGAGUGUUAUCCGCUCACCGAGAUCGGAAGAGCACACGU
B37: target 1 insA 3' of 7,insU 3' of 4 (mixed)
RNA 1: B35 RNA 1
RNA 2: B36 RNA 2 with G38A, A39G, G42U, U43A, A45C, U46A, C48G, G49C, C50U
B38: target 1 C4A,C21A (mixed)
RNA 1: B35 RNA 1
RNA 2: B35 RNA 2 with C31A, G34A, U45C, C48A

Biological target: T1, EsCas13d, nuclease-dead
Test: crRNA (strand 1, pre-loaded); Mg2+; 40 mM Tris-HCl pH 7.5, 150 mM NaCl, 6 mM MgCl2, 1 mM DTT, 0.1% Tween-20, 0.2 mg/ml BSA; 25 C; 10 min per concentration, then washed
Conditions: tags: His6-TwinStrep-SUMO cleaved; N-terminal SNAP kept (SNAP-Surface 488); label: 3' end held by stalled T7 RNA polymerase

Binder	Kd [nM]
B1	2.2 ± 0.4
B2	9.1 ± 1.6
B3	16.8 ± 2.8
B4	1.16 ± 0.21
B5	15.3 ± 2.1
B6	22 ± 5
B7	11.8 ± 1.6
B8	22 ± 4
B9	5.5 ± 0.6
B10	3.01 ± 0.32
B11	60 ± 24
B12	15 ± 3.3
B13	6.7 ± 3.2
B14	6.7 ± 0.6
B15	13.2 ± 2.3
B16	6.2 ± 0.8
B17	5.2 ± 0.5
B18	10.4 ± 1.8
B19	8.7 ± 1.1

Binder	Kd [nM]
B20	6.9 ± 1
B21	8.1 ± 1.3
B22	4.3 ± 0.5
B23	13.5 ± 2.6
B24	5.8 ± 1.5
B25	13 ± 4
B26	47 ± 20
B27	14 ± 5
B28	16 ± 5
B29	5.5 ± 0.7
B30	6.7 ± 0.9
B31	12.1 ± 2.1
B32	13.6 ± 1.5
B33	10 ± 2.5
B34	~12
B35	~70
B36	23.2 ± 3.2
B37	6.3 ± 0.5
B38	41 ± 9
